# Measurements as given in paper PMC6080891 (The Journal of General Physiology, 2018).
# B1: UNC-103::GFP (natural protein, C. elegans, UniProt G5EFJ9 1-829, looked up)
# chain: MKTAVFGRDSGEPGSPCGAPPSLTFTPPATLVPPTHHHSRSTNRGGVSGTGGGGSGGLQGAPGAGGPRASHSSRRTSRLHNNVSALGVLSLGADVLPEYKLQPTRIHHCTIVHYSPFKAVWDWIILLLVIYTAVFTPYVAAFLLRELQDTAKKSRFTEPLEIVDLIVDIMFIVDIIINFRTTYVNENDEACQVVSDPGKIATHYFKGWFIIDMVAAVPFDLLLVSTNSDETTTLIGLLKTARLLRLVRVARKLDRYSEYGAAVLLLLMATFALIAHWLACIWYAIGSAELSHKEYTWLHQLSKQLAQPYTSTNGTIPTGGPTLKSRYVTSLYFTLSTITSIGFGNVSATTDSEKIFTIIMMILGSLMYASVFGNVSAIIQRLYSGTARYHTEMSRLREFIRFHQIPNPLRQRLEEYFQHAWSYTNGIDMNLVLKGFPDCLQADICLHLNRNLLSGCAAFAGSTPGCLRALSMRFRTTHSPPGDTLVHRGDILTGLYFIARGSVEILNDDNTVMGILGKDDIFGENPLLYDEVGKSSCNVRALTYCDLHKILRDDLLDVLDMYPEFAETFCKNLTITYNLRDDAQSLRKKFDRHKLLRMSSSMNKDRYTTPPDGDHGNAAVRRSAESVSRCDSNPIDRRQSAGSRSSSRCSPPHAALTATRSEATPLLRRSTNHHEEDDALFDDIRAFARGNTVTMSPTVAGNSVSPTTAIHNDGIHSQQLSDRSDDYEERRANMFGRRLESIESQMERMQNKFNSDMETLIKLVKEQSIIRNNGSSNEEPNARYRPNNYISSAIRLPNGGGGGVVDEMRVSRLSSHEPPTPTQETDTIL
# Target: the molecule itself
# Experiment: native gel or EMSA
protein,measurement,value
B1,stoichiometry N,4
